Molecular target: the molecule itself
Assay: crystal structure

B1: SalC (enzyme, Salinispora tropica CNB440)
chain: MSEAVERNYDPGDVAIIGASCRFPGARNKEQYWDNLLHGREGVTFYAKDEIEVDETLINSPAYVRATGALDGYDEFDPAVFGVSDRMAAAMTPEHRVFLEASWEVMEDASYDPERVRGEVGVYASTNPQSAALYSSPPDWVSAGPEVMDRSNAWLPDTITSNVLYYLGLTGEAVTVTAVCSGFHYAVHLACQSLLLGQTDMAIAGGVMVRLPQRRGYLWEEGRILSRDGHCRPFDANGTGSVLASGVAVVLLKPLPQAVADRDHIYATVKGTAINNNGISAMAYGLAQPERLSACIAGAMQAGDVAPETVSMYEANGFGMPITDSLEVHAAHLAFGKQSGTCSIGAVKGNIGHAGVVAGGSGAVKAAFALYHRSLPPTINLTELNEEIDFPRTPFVPQLEPAAWQPECGIRRAGITALGGGGYNAHLVLEEPPRPVEREPENRRPRIVTLSALDDAAVSRQRAALSSWLAEHSDARLDDIAYSLNLGRKALPSRWAAVISTRDELLEVLSGDGKSGRVSRFGQERRADLARFRRTEDGLALGSGDEMRDVQALTELAAAWVQGERVNFEVLHADERSHRISLPNYPFARRRFWRTDW
In the case of B1, the “stoichiometry N” value is reported as 4.

Reference: publication PMC9058210 (Nature chemical biology, 2022)
